According to patent publication US20030235860A1, “Interactions between AR, ER, TR2, and TR4” (priority 1999, published 2003):

How the values were obtained:
[1] = target: T1, TR4 (Homo sapiens, UniProt P49116); assay: TR4-mediated transactivation reporter assay; format: cell-based
T1 construct: full-length AR and TR4 in eukaryotic expression vectors (pSG5AR and pCMXTR4) were co-transfected; expressed in transfected cells; host or cells: H1299, HepG2
T1 sequence (P49116 1-615 isoform P49116-2 N175S/W419R/A428G/K503N/L504W/A613V): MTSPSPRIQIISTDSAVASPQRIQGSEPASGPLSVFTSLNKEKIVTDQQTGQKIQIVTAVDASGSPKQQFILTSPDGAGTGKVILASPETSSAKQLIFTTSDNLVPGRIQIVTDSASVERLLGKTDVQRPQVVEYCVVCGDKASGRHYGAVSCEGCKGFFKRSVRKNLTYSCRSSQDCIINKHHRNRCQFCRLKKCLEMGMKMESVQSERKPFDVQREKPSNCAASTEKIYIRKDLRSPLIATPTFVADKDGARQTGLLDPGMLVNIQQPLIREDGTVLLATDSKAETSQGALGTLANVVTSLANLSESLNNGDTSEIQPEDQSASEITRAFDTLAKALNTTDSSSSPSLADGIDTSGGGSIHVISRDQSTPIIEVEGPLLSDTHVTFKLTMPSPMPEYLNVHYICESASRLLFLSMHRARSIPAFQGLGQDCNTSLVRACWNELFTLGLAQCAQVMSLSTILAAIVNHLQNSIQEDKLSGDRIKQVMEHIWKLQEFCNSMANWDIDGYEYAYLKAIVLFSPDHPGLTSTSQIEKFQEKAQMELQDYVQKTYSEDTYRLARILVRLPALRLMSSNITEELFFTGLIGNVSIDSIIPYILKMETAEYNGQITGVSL
Protocol: Cells were routinely maintained in DMEM with 10% heat-inactivated fetal bovine serum. The cells were transfected using a modified calcium phosphate precipitation method, Mizokami, & Chang, J: Biol. Chem. 269,25655-25659 (1994), or SuperFect (Qiagen). To normalize the transfection efficiency, the (3-galactosidase expression ver and pRL-TK were co-transfected in CAT assay and in Dual-luciferase reporter assay system (Promega), respectively.
More specifically, 500 ng of reporter plasmids were co-transfected(DR4-CAT and CNTFR-15-LUC) with 200 ng of pCMX-TR4 and increasing amounts of pCMV-AR (200, 600, and 1,200 ng), pSG5GR (1,200 ng), or pSG5 PR (1,200 ng) using the SuperFect transfection kit (Qiagen) (PCMV AR Mowszowicz et al., (1993) Molecular Endocrinology 7:861:869). […] Similar results were obtained when the DR4-TK-CAT reporter was replaced with DR1-CNTFR-15-LUC, another TR4 response element (FIG. 3A). Young, et al., J: Biol. Chem. 272,3109-3116 (1997).
Another TR4 potential target gene, which is located in the hepatitis B virus (HBV) enhancer II region (−34 to −7) containing a classic DR1 motif. Breidbart, et al., Pediatric Res. 34,300-302 (1993), was investigated. The reporter plasmid CpFL(4)-LUC, which contains the HBV core promoter (Cp) sequence located between −34 and −7 (nucleotide coordinates 1751 and 1778 derived from the Genbank database) was shown above in FIG. 3B. The arrows indicate the DRI motif in HBV core promoter. HepG2 cells were co-transfected with 1.5 μg CpFL(4)-LUC reporter and 0.5 μg pCMX-TR4, with increasing amounts of pCMV-AR (0.5, 2.5, and 5 μg) by modified calcium phosphate precipitation method. The relative reporter gene activities were compared to the CAT activities (or luciferase activities) with vector alone. To normalize the transfection efficiency, the β-galactosidase expression vector and pRL-TK were co-transfected in the CAT assay and in the Dual-luciferase reporter assay system (Promega), respectively.

[2] = target: T2, GR (Homo sapiens, UniProt P04150); assay: GR-mediated transactivation (MMTV reporter); format: cell-based
T2 construct: expressed in transfected cells; host or cells: H1299, PC-3 (pSG5-GR)
T2 sequence (P04150 1-777): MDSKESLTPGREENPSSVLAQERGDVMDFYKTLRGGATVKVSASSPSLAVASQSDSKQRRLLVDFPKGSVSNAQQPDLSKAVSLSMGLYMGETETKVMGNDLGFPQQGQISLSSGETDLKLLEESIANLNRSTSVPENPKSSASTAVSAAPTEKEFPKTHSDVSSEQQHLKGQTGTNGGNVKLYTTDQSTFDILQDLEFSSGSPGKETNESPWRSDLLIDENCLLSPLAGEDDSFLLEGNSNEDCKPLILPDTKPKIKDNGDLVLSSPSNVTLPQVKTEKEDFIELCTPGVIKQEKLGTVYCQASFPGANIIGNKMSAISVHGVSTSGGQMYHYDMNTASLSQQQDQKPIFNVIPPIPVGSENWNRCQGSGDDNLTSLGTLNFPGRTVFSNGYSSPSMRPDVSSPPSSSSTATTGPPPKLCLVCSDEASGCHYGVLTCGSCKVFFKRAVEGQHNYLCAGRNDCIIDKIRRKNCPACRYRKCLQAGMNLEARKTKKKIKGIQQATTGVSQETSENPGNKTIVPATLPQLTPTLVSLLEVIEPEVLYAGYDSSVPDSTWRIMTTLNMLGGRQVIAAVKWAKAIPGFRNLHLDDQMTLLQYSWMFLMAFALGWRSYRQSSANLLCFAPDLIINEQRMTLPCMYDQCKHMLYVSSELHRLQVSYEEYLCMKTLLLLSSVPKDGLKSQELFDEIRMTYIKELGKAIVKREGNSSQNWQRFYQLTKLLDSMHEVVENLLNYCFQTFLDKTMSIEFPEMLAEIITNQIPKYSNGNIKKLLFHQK
Protocol: To eliminate the potential artificial effects caused by overexpression of exogenous ER, T47D cells were used as a model to test the TR2 suppression effect on the endogenous ER-mediated transactivation. T47D cells were transfected with 1 μg of ERE-CAT reporter plasmid together with increasing amounts of the TR2 expression plasmid. […] All of the cells also were transfected with a galactosidase expression plasmid, pCMV-β-gal to normalize the transfection efficiency. As expected, the TR2 can still repress the endogenous ER-mediated ERE-CAT activity (FIG. 8B). For a control, the potential suppression effect of the TR2 on other steroid receptors-mediated transactivation was also tested, such as PR or GR. H1299 cells were co-transfected with 1 μg of MMTV-CAT reporter plasmid and 1 μg of PR or GR expression plasmid together with increasing amounts of the TR2 expression vector. […] AU of the cells also were transfected with a β-galactosidase expression plasmid, pCMV-β-gal to normalize the transfection efficiency.
AR is known to be highly involved in prostate cancer progression, and both TR2 and AR are expressed in prostate cancer, therefore the TR2 effect on AR transactivation activity was analyzed.

Molecule | CAT activity induced by pCMXTR4 (DR4-TK-CAT; similar with DR1-CNTFR-I5-LUC) ([1]; H1299 cells, absence or presence of DHT) | TR4-induced CpFL(4)-LUC activity (HBV core promoter) ([1]; HepG2 cells, increasing pCMV-AR) | Activity TR4 (effect of regulator on transcription activity) ([1]; Table 5) | GR-mediated transactivation (MMTV-CAT) ([2]; H1299 cells, 10^−8 M glucocorticoid, increasing TR2) | GR-mediated transactivation (MMTV-CAT) ([2]; PC-3 cells, 10 nM dexamethasone, pCMV-TR2) | GR-mediated transcription (MMTV-CAT) ([2]; T47D cells, Example 2)
AR: androgen receptor, SEQ ID NO:31 | repressed significantly | significantly decreased | Down |  |  | 
TR2: human testicular orphan nuclear receptor 2, 603 amino acids (protein, UniProt P13056 1-603, looked up, full-length, human testicular orphan nuclear receptor 2, 603 amino acids) MATIEEIAHQIIEQQMGEIVTEQQTGQKIQIVTALDHNTQGKQFILTNHDGSTPSKVILARQDSTPGKVFLTTPDAAGVNQLFFTTPDLSAQHLQLLTDNSPDQGPNKVFDLCVVCGDKASGRHYGAVTCEGCKGFFKRSIRKNLVYSCRGSKDCIINKHHRNRCQYCRLQRCIAFGMKQDSVQCERKPIEVSREKSSNCAASTEKIYIRKDLRSPLTATPTFVTDSESTRSTGLLDSGMFMNIHPSGVKTESAVLMTSDKAESCQGDLSTLANVVTSLANLGKTKDLSQNSNEMSMIESLSNDDTSLCEFQEMQTNGDVSRAFDTLAKALNPGESTACQSSVAGMEGSVHLITGDSSINYTEKEGPLLSDSHVAFRLTMPSPMPEYLNVHYIGESASRLLFLSMHWALSIPSFQALGQENSISLVKAYWNELFTLGLAQCWQVMNVATILATFVNCLHNSLQQDKMSTERRKLLMEHIFKLQEFCNSMVKLCIDGYEYAYLKAIVLFSPDHPSLENMEQIEKFQEKAYVEFQDYITKTYPDDTYRLSRLLLRLPALRLMNATITEELFFKGLIGNIRIDSVIPHILKMEPADYNSQIIGHSI |  |  |  | little effect | less suppression effect | marginal effect
